# Article PMC9972960
# Experiments:
# [1] = target: purified vaccine protein with HA from influenza A/PR/8/1934 (H1N1), with the C-terminal foldon trimerization domain (influenza A/PR/8/1934 (H1N1) | T4 phage) (UniProt P03452); test: SEC
# [2] = target: purified vaccine protein with HA from influenza A/PR/8/1934 (H1N1), with the C-terminal foldon trimerization domain (influenza A/PR/8/1934 (H1N1) | T4 phage) (UniProt P03452); test: native gel or EMSA
substance,measurement,setting,value
"purified vaccine protein with HA from influenza A/PR/8/1934 (H1N1), with the C-terminal foldon trimerization domain (from UniProt P03452)",stoichiometry N,[1],3
same,stoichiometry N,[2],3
